{
  "source": "patent US20200157190A1",
  "key": {"Antigen 1 [1]": {"target": "Antigen 1", "experiment": "ELISA, supernatant 1 TO 256, Plate 1 (Antigen 1), column 3, BLANK 0.07"}, "Antigen 2 [2]": {"target": "Antigen 2", "experiment": "ELISA, supernatant 1 TO 64, Plate 2 (Antigen 2), column 3, BLANK 0.06"}, "Antigen 1 [3]": {"target": "Antigen 1", "experiment": "ELISA, supernatant 1 TO 4096, Plate 1 (Antigen 1), column 3, BLANK 0.07"}, "Antigen 1 [4]": {"target": "Antigen 1", "experiment": "ELISA, supernatant 1 TO 64, Plate 1 (Antigen 1), column 3, BLANK 0.07"}, "Antigen 2 [5]": {"target": "Antigen 2", "experiment": "ELISA, supernatant 1 TO 256, Plate 2 (Antigen 2), column 3, BLANK 0.06"}, "Antigen 1 [6]": {"target": "Antigen 1", "experiment": "ELISA, supernatant UNDILUTED, Plate 1 (Antigen 1), column 3, BLANK 0.07"}, "Antigen 1 [7]": {"target": "Antigen 1", "experiment": "ELISA, supernatant 1 TO 16, Plate 1 (Antigen 1), column 3, BLANK 0.07"}, "Antigen 2 [8]": {"target": "Antigen 2", "experiment": "ELISA, supernatant 1 TO 4096, Plate 2 (Antigen 2), column 3, BLANK 0.06"}, "Antigen 2 [9]": {"target": "Antigen 2", "experiment": "ELISA, supernatant 1 TO 4, Plate 2 (Antigen 2), column 3, BLANK 0.06"}, "Antigen 2 [10]": {"target": "Antigen 2", "experiment": "ELISA, supernatant 1 TO 16, Plate 2 (Antigen 2), column 3, BLANK 0.06"}, "Antigen 1 [11]": {"target": "Antigen 1", "experiment": "ELISA, supernatant 1 TO 4, Plate 1 (Antigen 1), column 3, BLANK 0.07"}, "Antigen 1 [12]": {"target": "Antigen 1", "experiment": "ELISA, supernatant 1 TO 1024, Plate 1 (Antigen 1), column 3, BLANK 0.07"}, "Antigen 2 [13]": {"target": "Antigen 2", "experiment": "ELISA, supernatant 1 TO 1024, Plate 2 (Antigen 2), column 3, BLANK 0.06"}, "Antigen 2 [14]": {"target": "Antigen 2", "experiment": "ELISA, supernatant UNDILUTED, Plate 2 (Antigen 2), column 3, BLANK 0.06"}},
  "data": [
    {"binder": "Heavy Chain Construct 4 with Light Chain Construct 2 (VH2-VH1/VL2) (antibody) heavy: QSLEESGGRLVSPGTPLTLTCTASGFSLSSNAMGWVRQAPGEGLEYIGIIRPGGSTYYASWAKGRFTISKTSSTTVDLKMTSLTTEDTATYFCARAWDIWGPGTLVTVSLGQPKAPSVFPLAPCCGDTPSSTVTLGCLVKGYLPEPVTVTWNSGTLTNGVRTFPSVRQSSGLYSLSSVVSVTSSSQPVTCNVAHPATNTKVDKTVAPSTCSKPTCPPPELLGGRPQPQPQPQPQPQPQPQPQPQPQPQPQPQPQPQSRQSVEESGGRLVTPGTPLTLTCTVSGFSLNTNAIRWVRQAPGKGLEWIGAIDASGNTYYASWAKGRFTISKTSTTVDLKITSPTTEDTATYFCNRFNTANIWGPGTLVTVSSGQPKAPSVFPLAPCCGDTPSSTVTLGCLVKGYLPEPVTVTWNSGTLTNGVRTFPSVRQSSGLYSLSSVVSVTSSSQPVTCNVAHPATNTKVDKTVAPSTCSKPTCPPPELLGGPSVFIFPPKPKDTLMISRTPEVTCVVVDVSQDDPEVQFTWYINNEQVRTARPPLREQQFNSTIRVVSTLPIAHQDWLRGKEFKCKVHNKALPAPIEKTISKARGQPLEPKVYTMGPPREELSSRSVSLACMINGFYPSDISVEWEKNGKAEDNYKTTPAVLDSDGSYFLYSKLSVPTSEWQRGDVFTCSVMHEALHNHYTQKSISRSPGK light: AFELTQTPSSVEAAVGGTVTIRCQASQSISNQLSWYQQKPGQPPKRLIYRASTLASGVPARFKGSGSGTAFTLTISDLECADGATYYCQSFYYTDVIDYNAFGGGTEVVVTGDPVAPTVLIFPPAADQVATGTVTIVCVANKYFPDVTVTWEVDGTTQTTGIENSKTPQNSADCTYNLSSTLTLTSTQYNSHKEYTCKVTQGTTSVVQSFNRGDC", "values": [
      {"measurement": "ELISA plate reading", "setting": "Antigen 1 [1]", "result": 0.07},
      {"measurement": "ELISA plate reading", "setting": "Antigen 2 [2]", "result": 1.24},
      {"measurement": "ELISA plate reading", "setting": "Antigen 1 [3]", "result": 0.08},
      {"measurement": "ELISA plate reading", "setting": "Antigen 1 [4]", "result": 0.1},
      {"measurement": "ELISA plate reading", "setting": "Antigen 2 [5]", "result": 0.52},
      {"measurement": "ELISA plate reading", "setting": "Antigen 1 [6]", "result": 0.66},
      {"measurement": "ELISA plate reading", "setting": "Antigen 1 [7]", "result": 0.16},
      {"measurement": "ELISA plate reading", "setting": "Antigen 2 [8]", "result": 0.14},
      {"measurement": "ELISA plate reading", "setting": "Antigen 2 [9]", "result": 1.81},
      {"measurement": "ELISA plate reading", "setting": "Antigen 2 [10]", "result": 1.61},
      {"measurement": "ELISA plate reading", "setting": "Antigen 1 [11]", "result": 0.45},
      {"measurement": "ELISA plate reading", "setting": "Antigen 1 [12]", "result": 0.06},
      {"measurement": "ELISA plate reading", "setting": "Antigen 2 [13]", "result": 0.21},
      {"measurement": "ELISA plate reading", "setting": "Antigen 2 [14]", "result": 2.49}
    ]}
  ]
}
